Experimental findings from patent US20250270297A1 (DAEGU GYEONGBUK INSTITUTE OF SCIENCE AND TECHNOLOGY, published 2025) are described below.

The labels stand for the following.
B1: C8 (Fc fusion)
VL: QSALTQPASASGSPGQSVTISCTGTSSDVGGYNYVSWYQQHPGKAPKLMIYDVSKRPSGVSDRFSGSKSGNTASLTISGLQAEDGADYYCSSYRRGRTVVFGGGTKLTVL
VH: QVQLQQWGGGLVQPGGSLRLSCAASGFTFSSYAMSWVRQAPGKGLEWVSAISGSGGSTYYADSVKGRFTISRDNSKNTLYLQMNSLRAEDTAVYYCAKNYFGNPRGFDYWGQGTMVTVSS
B2: C32 (Fc fusion)
VL: DIQMTQSPAIMSASPGERVTMTCSASSSIRYIYWYQQKPGSSPRLLIYDTSNVAPGVPFRFSGSGSGTSYSLTINRMEAEDAATYYCQEWSGYPYTFGGGTKVEIKR
VH: QVQLVQSGAEVKKPGSSVKVSCKASGGSFSSYAISWVRQAPGQGLEWMGGIIPIFGTANYAQKFQGRVTITADESTSTAYMELSSLRSEDTAVYYCANLRGGSSHYGMDVWGQGTLVTVSS
B3: C11 (Fc fusion)
VL: ETTLTQSPGTLSVSPGERVTLSCRASQSVSSYLAWYQQKPGQAPRLLIYGASTRATGIPDRFSGSGSGTDFTLTISRLEPEDFAVYYCQQYGISPLNFGGGTKVEIK
VH: QVQLVQSGAEVKKPGSSVKVSCKASGGTFSSYAISWVRQAPGQGLEWMGGVIPIFGTANYAQKFRGRVTMTTDTSTSTAYMELRSLTSDDTAVYYCASPQGTWSTFLEWQGAFSVWGQGTTVTVSS

In the test the target is T1, rhACE2 (ACRO, Human ACE2/ACEH Protein, His Tag, #AC2-H52H8) (human, UniProt Q9BYF1 18-740).
T1 construct: not shown: His tag
T1 sequence (Q9BYF1 18-740 limits assumed): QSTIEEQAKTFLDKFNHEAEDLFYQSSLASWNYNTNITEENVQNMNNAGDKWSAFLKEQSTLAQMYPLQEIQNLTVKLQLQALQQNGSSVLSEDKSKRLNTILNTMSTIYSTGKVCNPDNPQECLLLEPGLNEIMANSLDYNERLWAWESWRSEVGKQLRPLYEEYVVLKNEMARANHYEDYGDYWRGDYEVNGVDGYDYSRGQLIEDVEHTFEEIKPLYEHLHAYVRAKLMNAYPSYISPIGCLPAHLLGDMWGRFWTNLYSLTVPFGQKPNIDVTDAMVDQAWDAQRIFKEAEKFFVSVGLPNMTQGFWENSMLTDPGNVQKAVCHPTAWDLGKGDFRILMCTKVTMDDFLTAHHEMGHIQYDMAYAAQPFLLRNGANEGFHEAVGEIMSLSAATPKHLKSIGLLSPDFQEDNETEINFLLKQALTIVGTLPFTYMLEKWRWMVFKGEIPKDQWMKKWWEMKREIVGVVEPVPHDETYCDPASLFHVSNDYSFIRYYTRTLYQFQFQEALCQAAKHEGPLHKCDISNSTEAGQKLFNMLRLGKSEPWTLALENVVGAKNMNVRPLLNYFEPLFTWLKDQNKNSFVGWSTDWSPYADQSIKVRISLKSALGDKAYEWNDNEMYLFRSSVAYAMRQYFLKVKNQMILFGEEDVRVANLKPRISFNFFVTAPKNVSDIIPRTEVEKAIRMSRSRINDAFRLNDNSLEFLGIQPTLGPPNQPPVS
Nature of the test: ELISA, rhACE2 coated at 0.2 ug/well, antibody at 0.02-2.5 ug/ml, anti-human-Fc-HRP, absorbance at 450 nm.
In the case of B1, the binding result is “binds”. Turning to B2, the binding result is reported as “binds”. Regarding B3, the binding result is “binds”.
